Here are results for eleven substances from patent US7985835B2, “Bioactive peptides and peptide derivatives of parathyroid hormone (PTH) and parathyroid hormone-related peptide (PTHrP)” (The General Hospital Corporation, priority 1998, dated 2011).

Entries after “also recorded” stand apart in the source; their conditions may differ. Ends that are not written are not given here.

Assay [1] addresses T1, human PTH-1 receptor (Homo sapiens, UniProt Q03431).
T1 sequence (Q03431 27-593): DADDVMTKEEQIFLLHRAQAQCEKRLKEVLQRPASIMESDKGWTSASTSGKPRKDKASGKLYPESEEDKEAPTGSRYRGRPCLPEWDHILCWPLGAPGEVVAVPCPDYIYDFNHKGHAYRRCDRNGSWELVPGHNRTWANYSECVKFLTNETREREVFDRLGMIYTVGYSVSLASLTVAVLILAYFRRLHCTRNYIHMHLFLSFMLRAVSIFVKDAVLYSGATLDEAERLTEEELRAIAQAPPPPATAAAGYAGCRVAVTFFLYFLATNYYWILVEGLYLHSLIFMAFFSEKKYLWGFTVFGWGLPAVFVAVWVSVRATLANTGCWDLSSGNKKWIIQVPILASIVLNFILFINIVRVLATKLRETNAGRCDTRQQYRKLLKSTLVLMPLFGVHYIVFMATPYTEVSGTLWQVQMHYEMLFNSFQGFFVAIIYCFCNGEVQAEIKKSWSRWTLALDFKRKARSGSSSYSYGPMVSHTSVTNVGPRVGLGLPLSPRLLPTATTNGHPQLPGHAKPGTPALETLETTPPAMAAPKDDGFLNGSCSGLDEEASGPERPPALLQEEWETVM
Kind of assay: cAMP in LLC-PK1 cells stably transfected with the human PTH-1 receptor (LLC-B7 cells). Set-up: expressed in transfected cells. In kind it is cell-based. How it is done:
FIG. 3. cAMP dose response curves of short amino-terminal PTH analogs in LLC-PK1 cells stably transfected with the human PTH-1 receptor (LLC-B7 cells). LLC-B7 cells in 24 plates were treated with the indicated peptides for 60 mins at 21° C., and then intracellular cAMP levels were measured. All PTH peptides shown are based on the rat PTH sequence and are carboxy-terminally amidated.
FIG. 7. cAMP activity of [Ile5]PTHrP(1-14). LLC-B7 cells were treated with the indicated peptide ligand, each at 100 μM, and then intracellular cAMP levels were measured.
Intracellular cAMP accumulation was measured as described previously (Abou-Samra et al., J. Biol. Chem. 262:1129, 1986). Cells in 24-well plates were rinsed with culture medium containing 0.1% BSA and 2 mM IBMX. The cells were then incubated with compounds of SEQ ID NO: 1 or derivatives thereof for 60 min. at 21° C. […] Intracellular cAMP was extracted by thawing the cells in 1 ml of 50 mM HCl and analyzed by a specific radioimmunoassay using an anti-cAMP antibody (e.g., Sigma, St. Louis, Mo.). […] The supernatant was removed and the bound radioactivity was counted in a gamma-counter (Micromedic). […]
The analysis extends to the PTHrP(1-14) sequence as well. […] LLC-B7 cells were treated with the indicated peptide ligand, each at 100 μM, and then intracellular cAMP levels were measured.

Assay [2] addresses T1, human PTH-1 receptor. Kind of assay: cAMP accumulation in COS-7 cells expressing the cloned human PTH-1 receptor. Particulars: for stimulation of cAMP formation: COS-7 cells expressing cloned human PTH-1 receptor, peptides at 67 μM, 30 minutes at 21° C. The arrangement: expressed in transfected cells; host or cells: COS-7. Type of assay: cell-based. How it is done:
FIG. 1. Bioactivity of amino-terminal and carboxy-terminal fragments of PTH(1-34). Fragments of parathyroid hormone were synthesized by chemical methods and purified by reverse-phase HPLC. Peptides were tested for the ability to stimulate cAMP accumulation in COS-7 cells expressing the cloned human PTH-1 receptor. PTH(1-34) was tested at a dose of 1 μM, other peptides were tested at 67 μM. Peptides were tested in duplicate (±s.e.m.) at a dose of 67 μM. The cAMP in control untreated cells is indicated by Bsl. Cells were treated for 30 minutes at 21° C.
FIG. 2. Alanine-scan of PTH(1-14). Shown are the bioactivities of 14 different PTH(1-14) derivatives, each having a different amino acid of the native sequence (shown at bottom of figure) (SEQ ID NO:14) replaced by alanine. Peptides were chemically synthesized, purified and tested for ability to stimulate cAMP formation in COS-7 cells expressing the cloned human PTH-1 receptor. Peptides were tested in duplicate (±s.e.m.) at a dose of 67 μM. As a control, untreated cells, indicated by basal, were measured. The PTH(1-14) containing alanine at position 1 was used as the wild-type reference. Cells were stimulated for 30 minutes at 21° C.
Intracellular cAMP accumulation was measured as described previously (Abou-Samra et al., J. Biol. Chem. 262:1129, 1986). Cells in 24-well plates were rinsed with culture medium containing 0.1% BSA and 2 mM IBMX. The cells were then incubated with compounds of SEQ ID NO: 1 or derivatives thereof for 60 min. at 21° C. The supernatant was removed and the cells immediately frozen by placing the whole plate in dry ice powder. Intracellular cAMP was extracted by thawing the cells in 1 ml of 50 mM HCl and analyzed by a specific radioimmunoassay using an anti-cAMP antibody (e.g., Sigma, St. Louis, Mo.). A cAMP analog (2′-O-monosuccinyl-adenosine 3′:5′-cyclic monophosphate tyrosyl methyl ester, obtained from Sigma) which was used a tracer for cAMP was iodinated by the chloramine T method. Free iodine was removed by adsorbing the iodinated cAMP analog onto a C18 Sep-pak cartridge (Waters, Milford, Mass.). After washing with dH20, the iodinated cAMP analog was eluted from the Sep-pak Cartridge with 40% acetonitrille (ACN) and 0.1% trifluoroacetic acid (TFA). The iodinated cAMP analog was lyophilized, reconstituted in 1 ml 0.1% TFA, and injected into a C18 reverse phase HPLC column (Waters). The column was equilibrated with 10% ACN in 0.1% TFA, and eluted with gradient of 10-30% ACN in 0.1% TFA. This allows separation of the mono-iodinated cAMP analog from the non-iodinated cAMP analog. The tracer is stable for up to 4 months when stored at −20° C. […] The supernatant was removed and the bound radioactivity was counted in a gamma-counter (Micromedic). […]

Assay [3] deals with untransfected LLC-PK1 cells. Nature of the assay: cAMP dose response in LLC-B7 cells versus untransfected LLC-PK1 cells. Particulars: LLC-B7 cells vs untransfected LLC-PK1 cells; FIG. 4. In kind it is cell-based, porcine. How it is done: FIG. 4. cAMP dose response curves of PTH(1-14) in LLC-B7 cells and in untransfected LLC-PK1 cells. PTH(1-14) and PTH(1-34) control peptides were tested as in FIG. 3.
(§1) PTH(1-14) specificity was also tested using the porcine renal cell line LLC-PK1, either untransfected or stably transfected with the human PTH-1 receptor, the LLC-B7 cell line.

The target in assay [4] is T2, rat secretin receptor (rSR) (Rattus norvegicus, UniProt P23811).
T2 construct: expressed in transfected cells; host or cells: COS-7
Nature of the assay: cAMP in COS-7 cells transfected with rat secretin receptor (specificity). In kind it is cell-based. Particulars: COS-7 cells transfected with rSR; FIG. 6. On the procedure:
FIG. 6. Specificity of PTH(1-14). […] Thus, the response to PTH(1-14) is dependent on the presence of the PTH-1 receptor.
as §1

Assay [5] relates to PTH. As to conditions: in vitro; cited from earlier work.
In assay [6] the test system is the receptor. Particulars: cited from earlier work.
The subject of assay [7] is AC. Particulars: cited from earlier work.
Assay [8] deals with T3, rat PTH-1 receptor (Rattus norvegicus, UniProt P25961).
T3 sequence (P25961 27-591): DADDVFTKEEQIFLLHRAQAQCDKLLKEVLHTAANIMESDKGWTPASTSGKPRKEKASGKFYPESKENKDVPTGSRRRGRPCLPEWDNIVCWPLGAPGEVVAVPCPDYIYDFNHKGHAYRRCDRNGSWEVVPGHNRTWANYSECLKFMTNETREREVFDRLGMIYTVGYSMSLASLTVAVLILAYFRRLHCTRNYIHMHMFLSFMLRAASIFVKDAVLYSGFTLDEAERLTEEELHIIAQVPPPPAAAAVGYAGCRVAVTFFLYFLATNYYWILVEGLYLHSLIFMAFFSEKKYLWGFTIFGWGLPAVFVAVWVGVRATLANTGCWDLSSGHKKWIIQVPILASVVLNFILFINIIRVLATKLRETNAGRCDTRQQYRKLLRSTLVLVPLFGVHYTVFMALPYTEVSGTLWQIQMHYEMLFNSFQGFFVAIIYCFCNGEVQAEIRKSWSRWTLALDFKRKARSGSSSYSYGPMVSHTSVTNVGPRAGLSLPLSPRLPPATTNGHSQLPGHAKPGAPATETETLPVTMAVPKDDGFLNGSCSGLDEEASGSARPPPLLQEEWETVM
Particulars: CHO cells expressing cloned rat PTH-1 receptor; cited from earlier work.

Assay [9] has as its system rat renal membranes. As to conditions: cited from earlier work.

T2 sequence (P23811 26-449): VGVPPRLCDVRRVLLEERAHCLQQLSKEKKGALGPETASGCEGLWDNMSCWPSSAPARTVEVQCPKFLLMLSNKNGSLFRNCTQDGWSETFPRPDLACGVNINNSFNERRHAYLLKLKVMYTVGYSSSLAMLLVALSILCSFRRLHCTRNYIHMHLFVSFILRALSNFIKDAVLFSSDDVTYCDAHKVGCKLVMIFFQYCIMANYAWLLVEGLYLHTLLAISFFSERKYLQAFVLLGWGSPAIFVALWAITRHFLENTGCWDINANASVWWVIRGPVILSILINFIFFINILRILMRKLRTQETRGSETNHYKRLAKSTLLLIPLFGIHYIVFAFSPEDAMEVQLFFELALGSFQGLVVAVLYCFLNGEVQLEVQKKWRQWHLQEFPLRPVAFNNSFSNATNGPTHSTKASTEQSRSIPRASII

With AVSEIQLLHDKGKS [[Ile^5] PTHrP(1-14)], the “cAMP activity, potency relative to native PTHrP(1-14)” value in assay [1] (each peptide at 100 μM, FIG. 7) was “enhanced potency, relative to native PTHrP(1-14)”.

Consider AVSEIQLMH [[Ala^1] PTH(1-9)], for which the “stimulation of cAMP formation” value in assay [2] (FIG. 1) is reported as “small cAMP response; also recorded: exhibits some biological activity”.

In the case of “AlaValSerGluIleGlnLeuMetHisAsnLeuGlyLysHis (AVSEIQLMHNLGKH-NH2) [[Ala^1] PTH(1-14)]”, the “activity relative to native PTH(1-34)” value in assay [2] (FIG. 1, PTH(1-34) at 1 μM, other peptides at 67 μM) was “weaker than native PTH(1-34)”. Also, in [2] (Ser1 to Ala substitution, compared with native PTH(1-14) peptide), the “bioactivity relative to native PTH(1-14)” value was “measurable increase in bioactivity over the background level of bioactivity of the native PTH(1-14) peptide”.

As to “PTH(1-13): PTH variant truncated by one amino acid at the C-terminus, residues 1-13; rat PTH sequence (AVSEIQLMHNLGK)”, the “cAMP dose response activity” value in assay [1] (60 mins at 21° C., rat PTH sequence, carboxy-terminally amidated, FIG. 3) is on record as “only very weak activity”.

For the substance “PTH(1-14): 1-14 fragment of PTH; peptides in FIG. 3 are based on the rat PTH sequence (alanine at position 1) (SVSEIQLMHNLGKH)”, in assay [3], the “dependence of cAMP response on PTH-1 receptor” value is “dependent on PTH-1 receptor expression; also recorded: completely dependent on the presence of the PTH-1 receptor”. The “stimulation of cAMP in cells expressing rat secretin receptor” value in assay [4] is “inactive; also recorded: does not stimulate cAMP”.

As to “PTH(3-34): synthetic analog of bovine PTH (SEIQFMHNLGKHLSSMERVEWLRKKLQDVHNF; Parathyroid hormone; UniProt P01268 34-65, looked up, fragment)”, the PTH antagonist activity result in [5] is listed as “potent PTH antagonist in vitro”.

Take “PTH(15-31): carboxy-terminal fragment of PTH(1-34) (LNSMERVEWLRKKLQDV; Parathyroid hormone; UniProt P01270 46-62, looked up, fragment) [reference compound]”: the “stimulation of cAMP formation” value in assay [2] (FIG. 1) was “inactive”.

In the case of PTH(15-34): PTH(15-34) fragment, in assay [6], the receptor binding result is “binds weakly”. Further, in assay [7], the “activation of AC” value is “does not activate AC”.

For the substance “PTHrP(1-16): short NH2-terminal PTHrP peptide investigated previously (AVSEHQLLHDKGKSIQ; Parathyroid hormone-related protein; UniProt P12272 37-52, looked up, fragment)”, the AC activity result in assay [8] is “inactive”.

In the case of “bPTH(1-12): short NH2-terminal PTH peptide investigated previously (AVSEIQFMHNLG; Parathyroid hormone; UniProt P01268 32-43, looked up, fragment)”, in assay [9], the adenylyl cyclase activity entry was “inactive”.

As for “secretin (1-27): control native secretin (1-27) [reference compound]”, the “stimulation of cAMP in cells expressing rat secretin receptor” value in assay [4] is given as “responds fully”.
